In patent US20250282876A1, “STABLE Fc FRAGMENTS, CONJUGATES, COMPOSITIONS, AND METHODS OF USE” (PURDUE RESEARCH FOUNDATION, priority 2022, published 2025):

What was measured:
CD32b = molecular target: T1, CD32b (Homo sapiens, UniProt P31994); assay: Bio Layer Interferometry (Octet) binding of monomeric Fc variants to FcγR; settings: huFcγR variant CD32b; 1:1 Langmuir fit; * denotes weak binding/inaccurate KD
T1 construct: purchased Beijing Sino Biological Inc
T1 sequence (P31994 43-310): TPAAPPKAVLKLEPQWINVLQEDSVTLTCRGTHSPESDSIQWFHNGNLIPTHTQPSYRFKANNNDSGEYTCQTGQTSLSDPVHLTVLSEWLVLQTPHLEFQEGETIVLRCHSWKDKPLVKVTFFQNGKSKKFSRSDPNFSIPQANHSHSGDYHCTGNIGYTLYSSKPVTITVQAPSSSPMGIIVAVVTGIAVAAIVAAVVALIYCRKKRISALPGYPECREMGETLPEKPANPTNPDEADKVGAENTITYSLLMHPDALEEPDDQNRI

FcγRIIIa = FcγRIIIa (Homo sapiens, UniProt P08637); assay: Binding affinity of mFc mutant compared with wild-type (Example 1 statement); settings: comparative with wild-type (WT)
FcγRIIb = molecular target: T2, FcγRIIb (Homo sapiens, UniProt P31994); assay: Binding of mFc mutant compared with wild-type (Example 1 statement); settings: as compared to WT
T2 sequence (P31994 43-310): T1 sequence (P31994 43-310)

[1] = system: antibody-dependent cell-mediated cytotoxicity (ADCC); assay: ADCC activity of mFc mutant (Example 1 statement); assay type: cell-based; settings: compared to WT
[2] = system: antibody-dependent cellular phagocytosis (ADCP); assay: ADCP activity of mFc mutant (Example 1 statement); assay type: cell-based; settings: compared to WT
CD16a (176F) = molecular target: T3, CD16a (176F) (Homo sapiens, UniProt P08637); assay: Bio Layer Interferometry (Octet) binding of monomeric Fc variants to FcγR; settings: huFcγR variant CD16a(176F); 1:1 Langmuir fit; * denotes weak binding/inaccurate KD
T3 construct: purchased Beijing Sino Biological Inc
T3 sequence (P08637 17-254): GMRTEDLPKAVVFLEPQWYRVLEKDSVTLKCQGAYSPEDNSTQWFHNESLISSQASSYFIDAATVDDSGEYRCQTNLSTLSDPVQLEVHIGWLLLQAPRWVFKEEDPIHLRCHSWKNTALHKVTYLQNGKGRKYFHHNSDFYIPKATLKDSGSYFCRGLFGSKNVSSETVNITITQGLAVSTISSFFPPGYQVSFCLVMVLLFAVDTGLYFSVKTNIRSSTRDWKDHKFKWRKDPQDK

Sequence of FcγRIIIa (P08637 17-254): as above

Substance | Kd (CD32b) [nM] | binding affinity to FcγRIIIa (FcγRIIIa) | binding to inhibitory FcγRIIb (FcγRIIb) | ADCC activity [1] | ADCP activity [2] | Kd (CD16a (176F)) [nM]
Mono-Fc DLE: modified Fc region of human IgG1 with DLE mutation (Ser239Asp/Ala330Leu/Ile332Glu) | 1.34 | increased FcγRIIIa affinity | low binding | enhanced | enhanced | –
Mono-Fc WT: wild-type Fc region of human IgG1 (aa 216-447), expressed as about 26 kDa monomeric form [reference compound] | 3760 | – | – | – | – | < 0.001
